The subject of one series is RDEC-E. coli. The series can be described thus: RDEC-E. coli intestinal infection in rabbits, oral EGF. It counts as in vivo, New Zealand White rabbits. The protocol:
Twenty-eight New Zealand White rabbits (6 wk-old) were studied in 3 groups: 1) Controls (Con, n=9), 2) Infected with 1×10^7 RDEC-E. coli (I, n=10), and 3) Infected-treated with 60 μg oral EGF daily for 10 days, starting 3 days prior to infection (I-EGF, n=9). Animals were assessed daily for weight gain, rectal passage of E. coli, and presence of diarrhea. Seven days post-infection, animals were killed and mucosa obtained from the jejunum (JEJ), ileum (ILE), and proximal colon (PROX) for quantitation of E. coli, and from the jejunum for mucosal enzyme assays.

Another series has as its system E. coli. The series can be described thus: E. coli translocation across confluent CaCo2 monolayers on Transwell membranes. It counts as cell-based, human. The protocol:
(§1) Two×10^8 human pathogenic Salmonella typhimurium or E. coli were added to the apical surface of confluent human CaCo2 monolayers grown on Transwell membranes (porosity 3.0 μm). Monolayers received apical EGF (100 μM) or PBS 15 min prior to infection. Each hour post infection (0-7 h), medium under the membrane was replaced and bacterial transepithelial migration rate (CFU/h) was calculated.

The next series relates to Salmonella typhimurium. The experiment in a line: Salmonella typhimurium translocation across confluent CaCo2 monolayers on Transwell membranes. It counts as cell-based, human. The conditions noted are these: apical EGF 100 μM 15 min prior to infection. The protocol: as §1
Series [1] is described as follows: Weight gain in healthy rabbits given daily oral EGF. The series is classed as in vivo, New Zealand white rabbits. As for the experimental part:
EGF was tested for its potential benefits on weight gain. One group of New Zealand white rabbits (6 week old, 500-700 g) received daily oral doses of recombinant human EGF (100 μg/kg body weight) and control animals were given saline only. […] Given the linear aspect of both curves, continued feeding with EGF is likely to produce a steadily increasing. effect on weight gain.

Series [2] has as its system intestinal brush border membrane nutrient absorption. The experiment in a line: Nutrient uptake into brush border membrane vesicles after jejunal loop treatment. The series is classed as in vivo, New Zealand White rabbits. The protocol:
Subsequent experiments examined the effects of EGF and an inhibitor of the EGF receptor (tyrphostin 51) on intestinal brush border membrane nutrient absorption. Tyrphostin 51is a specific inhibitor of tyrosine kinase, which is a critical element of the EGF intracellular signalling cascade. Studies were performed in New Zealand White rabbits (700-1000 g; approximately 8 weeks of age). Two 10 cm blind jejunal loops separated by a 1 cm segment were tied off starting 5 cm distal to the ligament of Treitz. In separate experiments either EGF (60 ng/ml), EGF+tyrphostin (10 μM), or tyrphostin (10 μM) alone in 1.5 ml of saline vehicle was administered to one of the loops. The other loop received vehicle alone and served as a paired control. After one hour, the loops were removed and the mucosa scraped for preparation of brush border membrane vesicles. Nutrient (D-glucose and L-proline) uptake into brush border membrane vesicles was determined by established techniques. Luminal EGF stimulated a significant increase (p<0.001) in brush border membrane glucose (EGF 16.1±1.0 vs CONTROL 11.5±0.9 nmol/min/mg protein; n=5) and proline (EGF 3.8±0.5 vs CONTROL 2.6±0.3 nmol/min/mg protein; n=5) transport compared to controls. […] Subsequently, a further series of experiments examined the effect of tyrphostin alone on brush border glucose transport. […] Thus, EGF treatment increases nutrient absorption and promotes weight gain. Conversely, tyrphostin treatment may promote a decrease in weight gain or weight loss and therefore may be useful in the treatment of obesity. Tyrphostin treatment may also reduce the intestinal uptake of toxic or adverse substances.

Series [3] in a line: Stability of lyophilized EGF in drinking water. It counts as physicochemical. As to conditions: lyophilized EGF added to drinking water.
The mark [4] stands for this setting: jejunum mucosa, 7 days after inoculation.

B1: epidermal growth factor (protein, UniProt P01133 23-1207, looked up)
Pro-epidermal growth factor: PQHWSCPEGTLAGNGNSTCVGPAPFLIFSHGNSIFRIDTEGTNYEQLVVDAGVSVIMDFHYNEKRIYWVDLERQLLQRVFLNGSRQERVCNIEKNVSGMAINWINEEVIWSNQQEGIITVTDMKGNNSHILLSALKYPANVAVDPVERFIFWSSEVAGSLYRADLDGVGVKALLETSEKITAVSLDVLDKRLFWIQYNREGSNSLICSCDYDGGSVHISKHPTQHNLFAMSLFGDRIFYSTWKMKTIWIANKHTGKDMVRINLHSSFVPLGELKVVHPLAQPKAEDDTWEPEQKLCKLRKGNCSSTVCGQDLQSHLCMCAEGYALSRDRKYCEDVNECAFWNHGCTLGCKNTPGSYYCTCPVGFVLLPDGKRCHQLVSCPRNVSECSHDCVLTSEGPLCFCPEGSVLERDGKTCSGCSSPDNGGCSQLCVPLSPVSWECDCFPGYDLQLDEKSCAASGPQPFLLFANSQDIRHMHFDGTDYGTLLSQQMGMVYALDHDPVENKIYFAHTALKWIERANMDGSQRERLIEEGVDVPEGLAVDWIGRRFYWTDRGKSLIGRSDLNGKRSKIITKENISQPRGIAVHPMAKRLFWTDTGINPRIESSSLQGLGRLVIASSDLIWPSGITIDFLTDKLYWCDAKQSVIEMANLDGSKRRRLTQNDVGHPFAVAVFEDYVWFSDWAMPSVMRVNKRTGKDRVRLQGSMLKPSSLVVVHPLAKPGADPCLYQNGGCEHICKKRLGTAWCSCREGFMKASDGKTCLALDGHQLLAGGEVDLKNQVTPLDILSKTRVSEDNITESQHMLVAEIMVSDQDDCAPVGCSMYARCISEGEDATCQCLKGFAGDGKLCSDIDECEMGVPVCPPASSKCINTEGGYVCRCSEGYQGDGIHCLDIDECQLGEHSCGENASCTNTEGGYTCMCAGRLSEPGLICPDSTPPPHLREDDHHYSVRNSDSECPLSHDGYCLHDGVCMYIEALDKYACNCVVGYIGERCQYRDLKWWELRHAGHGQQQKVIVVAVCVVVLVMLLLLSLWGAHYYRTQKLLSKNPKNPYEESSRDVRSRRPADTEDGMSSCPQPWFVVIKEHQDLKNGGQPVAGEDGQAADGSMQPTSWRQEPQLCGMGTEQGCWIPVSSDKGSCPQVMERSFHMPSYGTQTLEGGVEKPHSLLSANPLWQQRALDPPHQMELTQ
modifications: Pro-epidermal growth factor
In the case of B1, the “stool cultures for E. coli” value in the series with RDEC-E. coli (I-EGF group) is “positive”. The animals with diarrhea result with RDEC-E. coli (I-EGF group, 4 animals in infected group) is reported as “none”. Moreover, in the series on RDEC-E. coli (I-EGF vs I), the “effect on infection-induced reduced weight gain” value is given as “prevented”; the “effect on jejunum maltase and sucrase activities” value is “prevented the decrease”. Moreover, in the series on RDEC-E. coli (compared to infected (I)), the “reduction of E. coli colonization in the jejunum, ileum and proximal colon” value is recorded as above 85%. In addition, the “E. Coli ILE” value with RDEC-E. coli (ileum mucosa, 7 days after inoculation) stood at 4.88 ± 0.2 Log10 CFU/cm. In addition, in the series on RDEC-E. coli (ileum, vs infected), the “% bacterial clearance in infected + EGF group, ILE” value is 95%. Besides, in the series with RDEC-E. coli (infected rabbits, 60 μg oral EGF daily for 10 days, 7 days after inoculation), the “Cumulative Weight Gain” value is 316 ± 16 grams. Further, in the series with RDEC-E. coli (setting [4]), the “E. Coli JEJ” value was found to be 3.10 ± 0.4 Log10 CFU/cm, the “MALT (jejunum maltase activity)” value is 436 ± 48 u/g and the “SUC (jejunum sucrase activity)” value was found to be 89 ± 19 u/g. Besides, the “% bacterial clearance in infected + EGF group, JEJ” value in the series on RDEC-E. coli (jejunum, vs infected) is reported as 92%. The “E. Coli PROX” value in the series with RDEC-E. coli (proximal colon mucosa, 7 days after inoculation) was 4.09 ± 0.2 Log10 CFU/cm. In addition, the “% bacterial clearance in infected + EGF group, PROX” value in the series with RDEC-E. coli (proximal colon, vs infected) is given as 85%. Also, the “microorganisms adhering to the epithelial surface (scanning electron microscopy)” value in the series with E. coli (Transwell membrane studies, bacterium not specified) was “significantly higher numbers of microorganisms adhering to the epithelial surface of untreated monolayers”. In the series on E. coli (apical EGF 100 μM 15 min prior to infection), the “delay of initial E. coli translocation” value came out at 1 h. In addition, in the series with E. coli (apical EGF 100 μM, after the initial delay), the “inhibition of rate of E. coli invasion (transepithelial migration rate)” value is reported as above 95%. Further, the “translocation of S. typhimurium” value in the series with Salmonella typhimurium is given as “completely abolished”. The “mean cumulative weight gain” value in series [1] (at 9 days, 100 μg/kg body weight daily oral, n=10, controls 394±16 g) came out at 422 ± 27 g. Further, the “slope of the linear regression curve of weight gain” value in series [1] (vs untreated controls, P 0.002, FIG. 1) was “significantly greater”. In addition, the “brush border membrane proline transport” value in series [2] (EGF 60 ng/ml luminal, one hour, n=5, control 2.6±0.3) came out at 3.8±0.5 nmol/min/mg protein. Further, in series [2] (EGF 60 ng/ml luminal, one hour, n=5, control 11.5±0.9), the “brush border membrane glucose transport” value is 16.1±1.0 nmol/min/mg protein. The “glucose absorption in intact tissue” value in series [2] (luminal EGF, initial experiments) is “increased”. Also, the “stability in drinking water” value in series [3] is reported as “proven stable”.

For the origin of these results see patent US6656907B1, “Method of treating gastric ulcer by administration of epidermal growth factor” (University Technologies International Inc., priority 1995, dated 2003).
